Results published in patent US20130034559A1 (AstraZeneca / MedImmune, published 2013).
Substitutions are numbered along the chain they refer to.

T1: human B7-DC on 293T cells (human, UniProt Q9BQ51 20-273)
T1 construct: whole, on cells; also called PD-L2
T1 sequence (looked up): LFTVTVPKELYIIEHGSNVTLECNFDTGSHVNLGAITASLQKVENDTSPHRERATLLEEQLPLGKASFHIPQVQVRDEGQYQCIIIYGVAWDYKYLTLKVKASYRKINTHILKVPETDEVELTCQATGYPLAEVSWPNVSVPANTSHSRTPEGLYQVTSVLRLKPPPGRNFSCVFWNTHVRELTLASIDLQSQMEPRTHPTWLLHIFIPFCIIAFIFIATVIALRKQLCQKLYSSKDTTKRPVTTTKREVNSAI

B1: 3.15G8 (antibody, IgG4, V domains shown)
VH: EVQLVESGGGLVQPGGSLRLSCAASGFTFSSYWMSWVRQAPGKGLEWVANIKQDGGEKYYVDSVKGRFTISRDNAKNSLFLQMNSLRAEDTAVYYCARVQLYSDYFDYWGQGTLVTVSS
VL: DIQMTQSPSSVSASVGDRVTITCRASQGISSWLAWYQQKSGKAPKLLIYAASGLQSGVPSRFSGSGSGTDFTLTISSLQPEDLATYYCQQSHSLPPTFGQGTKVEIK
notes: also called mAb 3.15G8
B2: 2.20A8 (antibody, IgG2, V domains shown)
VH: EVQLLESGGGLVQPGGSLRLSCAASGFTFSNYAMSWVRQAPGKGLEWVSAIRGSGGSTYYADSVKGRFTISRDNSKNTLYLQMNSLRAEDTAVYYCAKDLHYDSSGYLDYWGQGTLVTVSS
VL: B1 VL with S30R, S40P, A51I, G53R, L83F, S91A, H92N, L94F, P96L, Q100G
notes: also called mAb 2.20A8
B3: 3.18G1 (antibody, V domains shown)
VH: EVQLLESGGDLVQPGGSLRLSCAASGFTFNSYAMSWVRQAPGKGLEWVSTISGSGGFTFSADSVKGRFTISRDNSKNTLFLQMNSLRVEDSAVYSCAKVLVGFNNGCWDYWGQGTLVTVSS
VL: SYVLTQPPSVSVAPGQTARITCGGNNIGSKSVHWYQQKPGQAPVLVVYDDSDRPSGIPERFSGSNSGNTATLTISRVEAGDEADYYCQVWDSSNDHVVFGGGTKLTVL
notes: also called mAb 3.18G1
B4: 2.9D10 (antibody, V domains shown)
VH: EVQLVESGGGLVQPGGSLRLSCAASGFTFSSYWMSWVRQAPGKGLEWVANIKQDGGEQYYVDSVKGRFTISRDNAKNSLYLQMNSLRAEDTAVYYCARDWNYGYYDMDVWGQGTTVTVSS
VL: EIVLTQSPGTLSLSPGERATLSCRASQSVSSNYLAWFQQKPGQAPRLLIFGTSSRATGIPDRFSGSGSGTDFTLTISRLEPEDFAVYYCQQYGSSIFTFGPGTKVDIK
notes: Tested as hybridoma supernatant or purified antibody; also called mAb 2.9D10
B5: 2.7A4 (antibody, IgG2, V domains shown)
VH: EVQLVESGGGLVKPGGSLRLSCAASGFTFSTYSMNWVRQAPGKGLEWVSSISSSGDYIYYADSVKGRFTISRDNAKNSLFLQMNSLKAEDTAVYYCARDLVTSMVAFDYWGQGTLVTVSS
VL: SYELTQPPSVSVSPGQAARITCSGDALPQKYVFWYQQKSGQAPVLVIYEDSKRPSGIPERFSGSSSGTMATLTISGAQVEDEADYYCYSTDRSGNHRVFGGGTRLTVL
notes: also called mAb 2.7A4
B6: 2.14H9 (antibody, IgG2, V domains shown)
VH: EVQLVESGGGLVQPGGSLRLSCAASGFTFSRYWMSWVRQAPGKGLEWVANIKQDGSEKYYVDSVKGRFTISRDNAKNSLYLQMNSLRAEDTAVYYCAREGGWFGELAFDYWGQGTLVTVSS
VL: EIVLTQSPGTLSLSPGERATLSCRASQRVSSSYLAWYQQKPGQAPRLLIYDASSRATGIPDRFSGSGSGTDFTLTISRLEPEDFAVYYCQQYGSLPWTFGQGTEVEIK
notes: also called mAb 2.14H9

Molecular target: T2, human B7-H1 expressed on cells (human, UniProt Q9NZQ7 19-290)
T2 construct: whole, on cells; also called PD-L1; huB7-H1
T2 sequence (Q9NZQ7 19-290): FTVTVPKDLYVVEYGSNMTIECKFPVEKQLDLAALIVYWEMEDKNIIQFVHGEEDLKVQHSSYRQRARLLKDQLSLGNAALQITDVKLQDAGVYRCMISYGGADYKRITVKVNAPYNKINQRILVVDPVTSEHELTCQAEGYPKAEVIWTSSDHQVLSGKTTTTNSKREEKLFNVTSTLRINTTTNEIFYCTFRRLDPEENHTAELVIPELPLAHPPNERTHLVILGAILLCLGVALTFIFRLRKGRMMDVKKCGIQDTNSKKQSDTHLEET
Test: FMAT, hybridoma supernatant, 293T cells expressing human B7-H1
Method: (§1) Immediately after plating, 10 μl/well of hybridoma supernatants were added and plates incubated for 1.5 hr at room temperature.

Row | Binder | Count | FL1 | FL1 × count
1 | B1 | 22 | 8810 | 194000
2 | B2 | 34 | 10300 | 350000
3 | B3 | 21 | 10900 | 228000
4 | B4 | 22 | 7180 | 158000
5 | B5 | 37 | 6980 | 258000

Molecular target: T1, human B7-DC on 293T cells
Test: FACS on 293T cells transfected with human B7-DC
Method: (§2) The ability of the purified antibodies to bind to human B7-H1, B7-DC, mouse B7H1 and cynomolgus monkey B7-H1 was determined by FACS analysis. […] Mouse J558 cells expressing mouse B7-H1 were obtained from ATCC (catalog #TIB-6). Cells were resuspended in PBS containing 2% FBS (FACS buffer) and seeded at 50000 cells/well into V-bottomed plates. Anti-B7-H1 and isotype control antibodies diluted in FACS buffer were added at a final concentration of 5 μg/ml and plates were incubated for 1 h at 4° C. […] Mouse anti-human B7-DC (PD-L2) antibody (R&D systems cat #MAB1224, detected with goat anti-mouse Fc Cy5, Jackson Immunoresearch) was used as a positive control for B7-DC expression. PE-conjugated rat anti-mouse B7-H1 antibody (eBioscience, clone M1H5, detected with goat anti-rat Fc Cy5, Jackson Immunoresearch) was used as a positive control for mouse B7-H1 expression.

Row | Binder | binding result
6 | B1 | no binding (tested: 5 µg/ml)
7 | B2 | no binding (tested: 5 µg/ml)
8 | B3 | no binding (tested: 5 µg/ml)
9 | B6 | no binding (tested: 5 µg/ml)
10 | B4 | no binding (tested: 5 µg/ml)
11 | B5 | no binding (tested: 5 µg/ml)

Molecular target: T3, cynomolgus monkey B7-H1 expressed on cells (cynomolgus monkey, UniProt G7PSE7 19-290)
T3 construct: whole, on cells; also called cyno B7-H1; cynomologus B7-H1
T3 sequence (G7PSE7 entry or part of it): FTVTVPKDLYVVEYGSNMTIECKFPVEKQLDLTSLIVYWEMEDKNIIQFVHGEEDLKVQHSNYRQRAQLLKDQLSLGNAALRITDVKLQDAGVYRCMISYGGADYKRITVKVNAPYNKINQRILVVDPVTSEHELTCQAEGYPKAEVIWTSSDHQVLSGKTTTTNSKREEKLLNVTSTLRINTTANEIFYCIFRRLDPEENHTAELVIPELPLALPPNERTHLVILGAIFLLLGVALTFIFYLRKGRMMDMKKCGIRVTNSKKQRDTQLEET
Test: FACS, 1 µg/ml antibody, anti-CD3-activated cynomolgus monkey T cells
Method: For activation of cynomolgus monkey T cells 96-well high binding plates were incubated with 100 μl/well of goat anti-mouse IgG Fc antibody diluted at 1 ug/ml in PBS at 4 C overnight. […] Cynomolgus monkey PBMC were isolated from peripheral blood (Bioreclamation, catalog #CYNWBCPT). Anti-CD3 mAb coated plates were washed with PBS and isolated PBMC were added in 200 ul of ICM media at ˜200000 cells/well and cultured for 72 hours. Cells were then harvested, washed in FACS buffer and mixed with diluted purified anti-B7-H1 antibodies or irrelevant human IgG2 or IgG4 antibodies at a final concentration of 1 ug/ml in 96-well V-bottom assay plate (50 ul/well). […] Cells were incubated for 1 hour at 4° C. before being washed again with FACS buffer and being read on a FACSCalibur instrument. Monkey T lymphocyte population was selected for analysis based on forward and side scatter as well as positive staining for CD3 marker and negative staining for 7-AAD.

Row | Binder | geo mean
12 | B1 | 92.8
13 | B2 | 80.7
14 | B3 | 94.6
15 | B6 | 106
16 | B4 | 107
17 | B5 | 104

Molecular target: T2, human B7-H1 expressed on cells
Test: FACS, 1 µg/ml antibody, anti-CD3-activated human T cells
Method: 96-well high binding plates were incubated with 100 μl/well of anti-CD3 antibody diluted at 1 ug/ml in PBS (OKT3 clone, eBioscience, catalog #160037) at 4 C overnight. Human T cells were isolated from frozen leukopack using T cell enrichment kit (StemCell Technologies, catalog #19051). Anti-CD3 mAb coated plates were washed with PBS and purified T cells were added in 200 ul of ICM media at 360000 cells/well and cultured for 72 hours. T cells were then harvested, washed in FACS buffer and mixed with diluted purified anti-B7-H1 antibodies or irrelevant human IgG2 or IgG4 antibodies at final concentration of 1 ug/ml in 96-well V-bottom assay plate (50 ul/well). […] Cells were incubated for 30 min at 4° C. before being washed again with FACS buffer and being read on a FACSCalibur instrument. Live lymphocyte population was selected for analysis based on forward and side scatter as well as negative staining for 7-AAD.

Row | Binder | geo mean
18 | B1 | 48
19 | B2 | 41
20 | B3 | 45
21 | B4 | 49
22 | B5 | 49

Molecular target: T1, human B7-DC on 293T cells
Test: FACS, 5 µg/ml antibody, 293T cells transfected with human B7-DC
Method: as §2

Row | Binder | geo mean
23 | B1 | 10.1
24 | B2 | 9.5
25 | B3 | 9.7
26 | B6 | 11.4
27 | B4 | 8.7
28 | B5 | 10.5

Molecular target: T2, human B7-H1 expressed on cells
Test: FACS competition: inhibition of biotinylated PD-1/Fc (10 ug/ml) binding to human B7-H1 on ES-2 cells
Method: Briefly, 50000 cells/well were plated in 50 μl of PBS into wells of a 384-well tissue culture plate (Corning Costar, catalog #3712). Next, 50 μl/well of a diluted monoclonal antibody was added at final concentration of […], 0.00016 nM and plates were incubated at 4 C for 1 hour. […] Cells were washed once and 100 μl/well of Cy5-conjugated streptavidin was added and plates were incubated at 4 C for 15 min before being washed again with PBS containing 2% FCS and being read on a FACSCalibur instrument.

Row | Binder | IC50 [nM]
29 | B1 | 0.148
30 | B2 | 0.198
31 | B3 | 0.14
32 | B4 | 0.109
33 | B5 | 0.077

Molecular target: T2, human B7-H1 expressed on cells
Test: cell ELISA: biotinylated PD-1/Fc (1.25 ug/ml) on CHO-huB7-H1 cells after hybridoma supernatant (1:5); 0% = 100% inhibition
Method: 25000 cells/well were plated in 50 μl of media into wells of a 384-well tissue culture plate (Corning Costar, catalog #3712). Next day, 50 μl/well of diluted (1:5) hybridoma supernatant was added and plates were incubated at 4 C for 1 hour on a shaker. […] Cells were washed and fixed in 100 ul of PBS containing 3.7% formaldehyde and 3% bovine serum albumin for 20 min at room temperature. Cells were washed and incubated in 100 ul of PBS containing 0.6% H2O2 and 3% bovine serum albumin for 10 min at room temperature. Cells were washed and incubated in 50 μl of horseradish peroxidase-conjugated streptavidin diluted at 1:4000 for 30 min at 4° C. Cells were washed before signal detection.

Row | Binder | PD1-Fc binding to CHO-huB7-H1 cells (% of max)
34 | B1 | 4 % of max
35 | B2 | 0 % of max
36 | B3 | 5 % of max
37 | B4 | -5 % of max
38 | B5 | 0 % of max

Molecular target: T4, mouse B7-H1 on J558 cells (mouse, UniProt Q9EP73 19-290)
T4 construct: whole, on cells
T4 sequence (Q9EP73 19-290): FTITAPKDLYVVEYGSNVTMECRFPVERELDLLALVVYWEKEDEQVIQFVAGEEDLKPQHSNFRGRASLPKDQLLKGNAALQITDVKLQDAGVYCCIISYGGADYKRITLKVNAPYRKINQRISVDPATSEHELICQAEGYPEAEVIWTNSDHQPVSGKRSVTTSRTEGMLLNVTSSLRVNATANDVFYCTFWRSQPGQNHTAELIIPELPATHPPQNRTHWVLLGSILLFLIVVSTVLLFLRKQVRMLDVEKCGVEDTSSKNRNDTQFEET
Test: FACS, 5 µg/ml antibody, J558 cells expressing mouse B7-H1
Method: as §2

Row | Binder | geo mean
39 | B1 | 3.2
40 | B2 | 3.3
41 | B3 | 3.2
42 | B6 | 3
43 | B4 | 3.2
44 | B5 | 3.2

Molecular target: T3, cynomolgus monkey B7-H1 expressed on …
Test: FMAT, hybridoma supernatant, 293T cells expressing cynomolgus monkey B7-H1
Method: as §1

Row | Binder | Count | FL1 | FL1 × count
45 | B1 | 64 | 8650 | 553000
46 | B2 | 65 | 7930 | 515000
47 | B3 | 66 | 10300 | 682000
48 | B6 | 56 | 6780 | 380000
49 | B4 | 54 | 5530 | 298000
50 | B5 | 59 | 8700 | 513000

Molecular target: T4, mouse B7-H1 on J558 cells
Test: FACS on J558 cells expressing mouse B7-H1
Method: as §2

Row | Binder | binding result
51 | B1 | no binding (tested: 5 µg/ml)
52 | B2 | no binding (tested: 5 µg/ml)
53 | B3 | no binding (tested: 5 µg/ml)
54 | B6 | no binding (tested: 5 µg/ml)
55 | B4 | no binding (tested: 5 µg/ml)
56 | B5 | no binding (tested: 5 µg/ml)

Molecular target: T2, human B7-H1 expressed on cells
Test: FACS, 5 µg/ml antibody, 293T cells transfected with human B7-H1
Method: as §2

Row | Binder | geo mean
57 | B1 | 1180
58 | B2 | 463
59 | B3 | 1540
60 | B4 | 463
61 | B5 | 754
